From publication PMC6630525

Key:
[1] = target: full-length Arabidopsis thaliana NAP1-Related Protein 2 (AtNRP2-His) (Arabidopsis thaliana) (UniProt Q8LC68); assay: ITC; H2A-H2B (200-210 µM) in the syringe, AtNRP1/AtNRP2 (20 µM) in the cell; 25 °C; 20 mM PIPES pH 7.4, 300 mM NaCl; sequential binding site model
[2] = target: full-length Arabidopsis thaliana NAP1-Related Protein 1 (AtNRP1-His) (Arabidopsis thaliana) (UniProt Q9CA59); assay: as above
[3] = target: full-length Arabidopsis thaliana NAP1-Related Protein 2 (AtNRP2-His) (Arabidopsis thaliana) (UniProt Q8LC68); assay: native gel or EMSA; native polyacrylamide gel; increasing amounts of H2A-H2B dimer titrated into a constant amount (5 µM) of AtNRP1/2 proteins
[4] = target: full-length Arabidopsis thaliana NAP1-Related Protein 1 (AtNRP1-His) (Arabidopsis thaliana) (UniProt Q9CA59); assay: as above

Sequence of full-length Arabidopsis thaliana NAP1-Related Protein 2 (AtNRP2-His) (Arabidopsis thaliana) (Q8LC68 other isoform, or with tags, fused parts or gaps): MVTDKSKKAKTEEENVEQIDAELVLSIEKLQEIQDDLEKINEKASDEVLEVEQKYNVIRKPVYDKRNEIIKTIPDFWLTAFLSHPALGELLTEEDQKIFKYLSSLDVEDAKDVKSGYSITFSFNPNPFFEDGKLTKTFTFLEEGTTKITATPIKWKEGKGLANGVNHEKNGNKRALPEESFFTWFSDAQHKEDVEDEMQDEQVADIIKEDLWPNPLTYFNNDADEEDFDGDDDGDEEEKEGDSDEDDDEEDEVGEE
Sequence of full-length Arabidopsis thaliana NAP1-Related Protein 1 (AtNRP1-His) (Arabidopsis thaliana) (Q9CA59 whole entry): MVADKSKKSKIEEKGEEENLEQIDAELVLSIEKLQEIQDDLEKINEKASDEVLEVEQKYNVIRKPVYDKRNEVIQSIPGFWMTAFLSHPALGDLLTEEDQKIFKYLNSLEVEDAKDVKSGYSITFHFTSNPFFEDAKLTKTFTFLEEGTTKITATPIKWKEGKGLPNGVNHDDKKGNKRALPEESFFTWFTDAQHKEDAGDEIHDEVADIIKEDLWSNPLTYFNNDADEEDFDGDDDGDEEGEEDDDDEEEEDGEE
Sequence of Arabidopsis thaliana histone H2A-H2B dimer (Q9LD28 whole entry): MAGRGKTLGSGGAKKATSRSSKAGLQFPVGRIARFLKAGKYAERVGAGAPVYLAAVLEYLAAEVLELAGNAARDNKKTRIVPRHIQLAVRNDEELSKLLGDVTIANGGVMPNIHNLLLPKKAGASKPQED
Sequence of Arabidopsis thaliana histone H2A-H2B dimer (Q9LQQ4 whole entry): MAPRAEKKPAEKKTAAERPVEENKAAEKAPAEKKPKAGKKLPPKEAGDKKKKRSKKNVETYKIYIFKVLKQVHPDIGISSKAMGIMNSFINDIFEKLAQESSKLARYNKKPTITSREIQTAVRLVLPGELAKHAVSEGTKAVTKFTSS

Substance “Arabidopsis thaliana histone H2A-H2B dimer (from UniProt Q9LD28 1-130; Q9LQQ4 1-148) (complex)” has a Kd1 (sequential binding model, first site) [1] of 39.6 nM, a Kd2 (sequential binding model, second site) [1] of 1 µM and a dH1 (sequential binding model, first site) [1] of 30.5 kJ/mol. The dH2 (sequential binding model, second site) [1] was 5.56 kJ/mol, the Kd1 (sequential binding model, first site) [2] was 130 nM and the Kd2 (sequential binding model, second site) [2] was 2.4 µM. For the same substance, the dH1 (sequential binding model, first site) [2] was 35.6 kJ/mol, the dH2 (sequential binding model, second site) [2] was 25.1 kJ/mol and the stoichiometry N (H2A-H2B dimers per NRP dimer) [3] was 2. The stoichiometry N (H2A-H2B dimers per NRP dimer) [4] was 2.
